According to patent US12679878B2, “CRF2 receptor agonists and their use in therapy” (SANOFI, priority 2020, dated 2026):
Starred links: 1 amine or outer side, 2 acyl side, 3 side chain; linkers in the order of their positions; H or OH if unused. Non-standard residues stand in square brackets, D forms with d. Groups on a side chain read outwards from the residue. No end group written: not given here. *: point of attachment. C18 diacid = O=C(O)CCCCCCCCCCCCCCCCC(=O)*; γGlu = O=C(O)[C@H](CCC(=O)[*:2])N[*:1]; Palmitoyl = CCCCCCCCCCCCCCCC(=O)*; AEEA = NCCOCCOCC(=O)O; Aib = CC(C)(N)C(=O)O

Target: human corticotropin-releasing factor 2α (CRF2 α receptor) (human), Q13324
Sequence (Q13324 20-411): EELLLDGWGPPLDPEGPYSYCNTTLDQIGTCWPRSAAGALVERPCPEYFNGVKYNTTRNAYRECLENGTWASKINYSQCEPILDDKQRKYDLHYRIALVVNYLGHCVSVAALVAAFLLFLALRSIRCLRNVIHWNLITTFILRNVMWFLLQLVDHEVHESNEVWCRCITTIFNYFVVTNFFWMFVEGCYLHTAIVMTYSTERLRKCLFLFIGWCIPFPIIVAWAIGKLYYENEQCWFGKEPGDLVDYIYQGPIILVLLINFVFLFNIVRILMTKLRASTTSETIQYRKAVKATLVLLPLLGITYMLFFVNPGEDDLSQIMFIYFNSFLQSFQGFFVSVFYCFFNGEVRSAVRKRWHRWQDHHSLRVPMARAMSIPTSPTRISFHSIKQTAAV
Test: cell-based or functional assay

Binder	EC50 [nM], 0% HSA	EC50 [nM], 0.1% HSA
IVLSLDVPIKLK([AEEA-AEEA-γGlu-C18 diacid])QILLKQERQK[Aib]QREQAEKNKQILERV-NH2 (N-terminus assumed; SMILES CC[C@H](C)[C@H](N)C(=O)N[C@H](C(=O)N[C@@H](CC(C)C)C(=O)N[C@@H](CO)C(=O)N[C@@H](CC(C)C)C(=O)N[C@@H](CC(=O)O)C(=O)N[C@H](C(=O)N1CCC[C@H]1C(=O)N[C@H](C(=O)N[C@@H](CCCCN)C(=O)N[C@@H](CC(C)C)C(=O)N[C@@H](CCCCNC(=O)COCCOCCNC(=O)COCCOCCNC(=O)CC[C@H](NC(=O)CCCCCCCCCCCCCCCCC(=O)O)C(=O)O)C(=O)N[C@@H](CCC(N)=O)C(=O)N[C@H](C(=O)N[C@@H](CC(C)C)C(=O)N[C@@H](CC(C)C)C(=O)N[C@@H](CCCCN)C(=O)N[C@@H](CCC(N)=O)C(=O)N[C@@H](CCC(=O)O)C(=O)N[C@@H](CCCNC(=N)N)C(=O)N[C@@H](CCC(N)=O)C(=O)N[C@@H](CCCCN)C(=O)NC(C)(C)C(=O)N[C@@H](CCC(N)=O)C(=O)N[C@@H](CCCNC(=N)N)C(=O)N[C@@H](CCC(=O)O)C(=O)N[C@@H](CCC(N)=O)C(=O)N[C@@H](C)C(=O)N[C@@H](CCC(=O)O)C(=O)N[C@@H](CCCCN)C(=O)N[C@@H](CC(N)=O)C(=O)N[C@@H](CCCCN)C(=O)N[C@@H](CCC(N)=O)C(=O)N[C@H](C(=O)N[C@@H](CC(C)C)C(=O)N[C@@H](CCC(=O)O)C(=O)N[C@@H](CCCNC(=N)N)C(=O)N[C@H](C(N)=O)C(C)C)[C@@H](C)CC)[C@@H](C)CC)[C@@H](C)CC)C(C)C)C(C)C) [SEQ ID NO: 115]	2.77 nM	–
IVLSLDVPIKLK([AEEA-AEEA-γGlu-C18 diacid])QILLKQERQK[Aib]QRQQAEKNKQILAQV-NH2 (N-terminus assumed; SMILES CC[C@H](C)[C@H](N)C(=O)N[C@H](C(=O)N[C@@H](CC(C)C)C(=O)N[C@@H](CO)C(=O)N[C@@H](CC(C)C)C(=O)N[C@@H](CC(=O)O)C(=O)N[C@H](C(=O)N1CCC[C@H]1C(=O)N[C@H](C(=O)N[C@@H](CCCCN)C(=O)N[C@@H](CC(C)C)C(=O)N[C@@H](CCCCNC(=O)COCCOCCNC(=O)COCCOCCNC(=O)CC[C@H](NC(=O)CCCCCCCCCCCCCCCCC(=O)O)C(=O)O)C(=O)N[C@@H](CCC(N)=O)C(=O)N[C@H](C(=O)N[C@@H](CC(C)C)C(=O)N[C@@H](CC(C)C)C(=O)N[C@@H](CCCCN)C(=O)N[C@@H](CCC(N)=O)C(=O)N[C@@H](CCC(=O)O)C(=O)N[C@@H](CCCNC(=N)N)C(=O)N[C@@H](CCC(N)=O)C(=O)N[C@@H](CCCCN)C(=O)NC(C)(C)C(=O)N[C@@H](CCC(N)=O)C(=O)N[C@@H](CCCNC(=N)N)C(=O)N[C@@H](CCC(N)=O)C(=O)N[C@@H](CCC(N)=O)C(=O)N[C@@H](C)C(=O)N[C@@H](CCC(=O)O)C(=O)N[C@@H](CCCCN)C(=O)N[C@@H](CC(N)=O)C(=O)N[C@@H](CCCCN)C(=O)N[C@@H](CCC(N)=O)C(=O)N[C@H](C(=O)N[C@@H](CC(C)C)C(=O)N[C@@H](C)C(=O)N[C@@H](CCC(N)=O)C(=O)N[C@H](C(N)=O)C(C)C)[C@@H](C)CC)[C@@H](C)CC)[C@@H](C)CC)C(C)C)C(C)C) [SEQ ID NO: 117]	0.11 nM	–
IVLSLDVPIKLK([AEEA-AEEA-γGlu-C18 diacid])QILLEQARQK[Aib]QRAQAETNKRILERV-NH2 [SEQ ID NO: 114]	0.16 nM	12.4 nM
IVLSLDVPIKLK([AEEA-AEEA-γGlu-C18 diacid])QILLKQERQK[Aib]QREKAEKNKQILAQV-NH2 (N-terminus assumed; SMILES CC[C@H](C)[C@H](N)C(=O)N[C@H](C(=O)N[C@@H](CC(C)C)C(=O)N[C@@H](CO)C(=O)N[C@@H](CC(C)C)C(=O)N[C@@H](CC(=O)O)C(=O)N[C@H](C(=O)N1CCC[C@H]1C(=O)N[C@H](C(=O)N[C@@H](CCCCN)C(=O)N[C@@H](CC(C)C)C(=O)N[C@@H](CCCCNC(=O)COCCOCCNC(=O)COCCOCCNC(=O)CC[C@H](NC(=O)CCCCCCCCCCCCCCCCC(=O)O)C(=O)O)C(=O)N[C@@H](CCC(N)=O)C(=O)N[C@H](C(=O)N[C@@H](CC(C)C)C(=O)N[C@@H](CC(C)C)C(=O)N[C@@H](CCCCN)C(=O)N[C@@H](CCC(N)=O)C(=O)N[C@@H](CCC(=O)O)C(=O)N[C@@H](CCCNC(=N)N)C(=O)N[C@@H](CCC(N)=O)C(=O)N[C@@H](CCCCN)C(=O)NC(C)(C)C(=O)N[C@@H](CCC(N)=O)C(=O)N[C@@H](CCCNC(=N)N)C(=O)N[C@@H](CCC(=O)O)C(=O)N[C@@H](CCCCN)C(=O)N[C@@H](C)C(=O)N[C@@H](CCC(=O)O)C(=O)N[C@@H](CCCCN)C(=O)N[C@@H](CC(N)=O)C(=O)N[C@@H](CCCCN)C(=O)N[C@@H](CCC(N)=O)C(=O)N[C@H](C(=O)N[C@@H](CC(C)C)C(=O)N[C@@H](C)C(=O)N[C@@H](CCC(N)=O)C(=O)N[C@H](C(N)=O)C(C)C)[C@@H](C)CC)[C@@H](C)CC)[C@@H](C)CC)C(C)C)C(C)C) [SEQ ID NO: 116]	0.7 nM	–
FTLSLDVPTKIK([γGlu-Palmitoyl])QKLLKQEKQKKQRQKAKTNAQILAQV-NH2 (N-terminus assumed; SMILES CCCCCCCCCCCCCCCC(=O)N[C@@H](CCC(=O)NCCCC[C@H](NC(=O)[C@@H](NC(=O)[C@H](CCCCN)NC(=O)[C@@H](NC(=O)[C@@H]1CCCN1C(=O)[C@@H](NC(=O)[C@H](CC(=O)O)NC(=O)[C@H](CC(C)C)NC(=O)[C@H](CO)NC(=O)[C@H](CC(C)C)NC(=O)[C@@H](NC(=O)[C@@H](N)Cc1ccccc1)[C@@H](C)O)C(C)C)[C@@H](C)O)[C@@H](C)CC)C(=O)N[C@@H](CCC(N)=O)C(=O)N[C@@H](CCCCN)C(=O)N[C@@H](CC(C)C)C(=O)N[C@@H](CC(C)C)C(=O)N[C@@H](CCCCN)C(=O)N[C@@H](CCC(N)=O)C(=O)N[C@@H](CCC(=O)O)C(=O)N[C@@H](CCCCN)C(=O)N[C@@H](CCC(N)=O)C(=O)N[C@@H](CCCCN)C(=O)N[C@@H](CCCCN)C(=O)N[C@@H](CCC(N)=O)C(=O)N[C@@H](CCCNC(=N)N)C(=O)N[C@@H](CCC(N)=O)C(=O)N[C@@H](CCCCN)C(=O)N[C@@H](C)C(=O)N[C@@H](CCCCN)C(=O)N[C@H](C(=O)N[C@@H](CC(N)=O)C(=O)N[C@@H](C)C(=O)N[C@@H](CCC(N)=O)C(=O)N[C@H](C(=O)N[C@@H](CC(C)C)C(=O)N[C@@H](C)C(=O)N[C@@H](CCC(N)=O)C(=O)N[C@H](C(N)=O)C(C)C)[C@@H](C)CC)[C@@H](C)O)C(=O)O) [SEQ ID NO: 11]	0.02 nM	–
IVLSLD[dV]PIKLK([AEEA-AEEA-γGlu-C18 diacid])QILLKQERQK[Aib]QRQKAEKNKQILAQV-NH2 (N-terminus assumed; SMILES CC[C@H](C)[C@H](N)C(=O)N[C@H](C(=O)N[C@@H](CC(C)C)C(=O)N[C@@H](CO)C(=O)N[C@@H](CC(C)C)C(=O)N[C@@H](CC(=O)O)C(=O)N[C@@H](C(=O)N1CCC[C@H]1C(=O)N[C@H](C(=O)N[C@@H](CCCCN)C(=O)N[C@@H](CC(C)C)C(=O)N[C@@H](CCCCNC(=O)COCCOCCNC(=O)COCCOCCNC(=O)CC[C@H](NC(=O)CCCCCCCCCCCCCCCCC(=O)O)C(=O)O)C(=O)N[C@@H](CCC(N)=O)C(=O)N[C@H](C(=O)N[C@@H](CC(C)C)C(=O)N[C@@H](CC(C)C)C(=O)N[C@@H](CCCCN)C(=O)N[C@@H](CCC(N)=O)C(=O)N[C@@H](CCC(=O)O)C(=O)N[C@@H](CCCNC(=N)N)C(=O)N[C@@H](CCC(N)=O)C(=O)N[C@@H](CCCCN)C(=O)NC(C)(C)C(=O)N[C@@H](CCC(N)=O)C(=O)N[C@@H](CCCNC(=N)N)C(=O)N[C@@H](CCC(N)=O)C(=O)N[C@@H](CCCCN)C(=O)N[C@@H](C)C(=O)N[C@@H](CCC(=O)O)C(=O)N[C@@H](CCCCN)C(=O)N[C@@H](CC(N)=O)C(=O)N[C@@H](CCCCN)C(=O)N[C@@H](CCC(N)=O)C(=O)N[C@H](C(=O)N[C@@H](CC(C)C)C(=O)N[C@@H](C)C(=O)N[C@@H](CCC(N)=O)C(=O)N[C@H](C(N)=O)C(C)C)[C@@H](C)CC)[C@@H](C)CC)[C@@H](C)CC)C(C)C)C(C)C) [SEQ ID NO: 118]	0.04 nM	2.13 nM
FTLSLDVPTKIK([γGlu-Palmitoyl])QKLLKQEKQKKQRQKAKTAAQILAQV-NH2 (N-terminus assumed; SMILES CCCCCCCCCCCCCCCC(=O)N[C@@H](CCC(=O)NCCCC[C@H](NC(=O)[C@@H](NC(=O)[C@H](CCCCN)NC(=O)[C@@H](NC(=O)[C@@H]1CCCN1C(=O)[C@@H](NC(=O)[C@H](CC(=O)O)NC(=O)[C@H](CC(C)C)NC(=O)[C@H](CO)NC(=O)[C@H](CC(C)C)NC(=O)[C@@H](NC(=O)[C@@H](N)Cc1ccccc1)[C@@H](C)O)C(C)C)[C@@H](C)O)[C@@H](C)CC)C(=O)N[C@@H](CCC(N)=O)C(=O)N[C@@H](CCCCN)C(=O)N[C@@H](CC(C)C)C(=O)N[C@@H](CC(C)C)C(=O)N[C@@H](CCCCN)C(=O)N[C@@H](CCC(N)=O)C(=O)N[C@@H](CCC(=O)O)C(=O)N[C@@H](CCCCN)C(=O)N[C@@H](CCC(N)=O)C(=O)N[C@@H](CCCCN)C(=O)N[C@@H](CCCCN)C(=O)N[C@@H](CCC(N)=O)C(=O)N[C@@H](CCCNC(=N)N)C(=O)N[C@@H](CCC(N)=O)C(=O)N[C@@H](CCCCN)C(=O)N[C@@H](C)C(=O)N[C@@H](CCCCN)C(=O)N[C@H](C(=O)N[C@@H](C)C(=O)N[C@@H](C)C(=O)N[C@@H](CCC(N)=O)C(=O)N[C@H](C(=O)N[C@@H](CC(C)C)C(=O)N[C@@H](C)C(=O)N[C@@H](CCC(N)=O)C(=O)N[C@H](C(N)=O)C(C)C)[C@@H](C)CC)[C@@H](C)O)C(=O)O) [SEQ ID NO: 8]	0.2 nM	–
IVLSLDVPIKLK([AEEA-AEEA-γGlu-C18 diacid])QILLKQERQKKQRQQAETNKQILAQV-NH2 [SEQ ID NO: 113]	0.1 nM	11.9 nM
